{
  "source": "the DeepSol protein solubility set",
  "data": [
    {"assay": "soluble on expression in E. coli; label from the status in PepcDB or PDB records", "values": [
      {"sequence": "MEDIENIEEDEYGFSRNYFLAKELGGASKRSAHKLSDIHIVDEQELRETASTIEMKHSKEISELMSDYKTMYSKWVFELRCGFGLLMYGFGSKKALVEDFASASLTDYSVVVINGYLPSVNLKQVLLALAELLSELLKCKRKSSGSLSKGQETFPSRSMDDILSFLHGPQSGDKDCFICVVVHNIDGPALRDPESQQTLARLSSCSHIRLVASIDHVNAPLLWDKKMVHKQFNWLWHHVPTFAPYNVEGVFFPLVLAQGSTAQTAKTAAIVLQSLTPNGQNVFKILAEYQLSHPDEDGMPTDDLYSASRERFFVSSQVTLNSHLTEFKDHELVKTKRNSDGQECLNIPLTSDAIRQLLLDLNQ", "soluble on expression in E. coli": "not soluble"},
      {"sequence": "MGNQSARQLSTHRKHVVHTWNTINSHDPQLLSDAISEAWLKSAELTPTWVWALVDLPETMHATYKENAQFLNIINQVRDFLNILIKVHKCDPEMIKTLSFRLGARHRHYMNEGNDNCFWAPFAQQLPIAMSKMYMRVVTEDSKIRRILRIRSRAAEKSEEEEVCESWRQFSCMLIESMKRGYEGCASEKTPLRLSITNSIISMASMRSSRSRSASHFLEPNMSPAIAPMCALLGSTESNSTTTTTQPSSPITPYRRRSMFRAGGALQRNSQDFTALRNRRMSSPNNPSILLNNCDIQLLKLTSQLSPLEDQVKQNRVPGRAHQQRRSITLLNFDHHHRARSPTT", "soluble on expression in E. coli": "not soluble"},
      {"sequence": "AVLLLGEVTNGALNRDATAKAVAAVKALGDVTVLCAGASAKAAAEEAAKIAGVAKVLVAEDALYGHRLAEPTAALIVGLAGDYSHIAAPATTDAKNVMPRVAALLDVMVLSDVSAILDADTFERPIYAGNAIQVVKSKDAKKVFTIRTASFDAAGEGGTAPVTETAAAADPGLSSWVADEVAESDRPELTSARRVVSGGRGLGSKESFAIIEELADKLGAAVGASRAAVDSGYAPNDWQVGQTGKVVAPELYVAVGISGAIQHLAGMKDSKVIVAINKDEEAPIFQIADYGLVGDLFSVVPELTGKL", "soluble on expression in E. coli": "soluble"},
      {"sequence": "GGVDRWPEYYPETGRDIWIDSVMRQEYLWYRDMPSPAAPDYFQKPEAFLKKAVASMDNGFSKIDSLLDEPIPSYGFDYTLYKVLDNDTAYNALISYVVPGSPAEEAGLQRGHWIMMMNGDYITKKVESELLQGSTRQLQIGVYKEVVGEDGEVTGGVVPIGETTMPASRSLVDKPVHRFEIIPWNGKKVGYLMYNEFKAGPTTDSQAYNDDLRRAFRDFQTGGVNEFVLDLRYNTGGSLDCAQLLCTMLAPADKMNQLLALLRYSDKRVEANQDLTFNPELIQSGANLNLSTVYVLTTNATRGAAEMVINCLNPYMKVVLIGTKTAGEYVATKPFVHPTDRFILNLVVCNVYNAEEKSDYATGFKPTYEYNEDSYLSTYLPFGNTNETLLNAALKIMSGITDK", "soluble on expression in E. coli": "soluble"},
      {"sequence": "MPKNKGKGGKNRRRGKNDSEGDKRELVFKEEGQEYGQVQRMLGNGRLDAYCFDGQKRLCHIRGKMRKKVWVNPGDIVLVSLRDFQDSKGDIILKYTPDEARALKSKGEIPETTKINE", "soluble on expression in E. coli": "soluble"},
      {"sequence": "GPGSMSTLKEVNGRLNTQPFVSGFSPSSEDARIFNEMFGSNVNVIQWVARMASYYQAERDEILNAGTEKKATEPAKKAAAPAPAAAAAAEEEDDIDLFGETTEEEKAALEAKKAKDAEKKKAKKEVIAKSSILFDIKAWDDTIDLEALAQKLHAIQRDGLIWGDHKLVPVAFGVKKLQQLIVIEDDKVSGDDLEEMVMGFEDEVQSMDIVAWNKI", "soluble on expression in E. coli": "soluble"},
      {"sequence": "MSLSRLPLIGVTACSRQIGLHAYHISGDEYVHAVASAAQGVPVIIPSMAELLSPSDILDGLDGILFTGSPSNIEPFHYQGPASAPGTAHDSARDAATLPLLSAAVASGVPVLGICRGFQEMNVALGGSLHQNVQQVQPFMDHRHAEQPGQPLDAWYAPAHDLHIKAGGVLAGLGLPERIQVNSIHAQGVERLAPGLRVEALAPDGLVEAVSVEASKAFALGVQWHPEWQVSCNPHYLAIFQAFGDACRKRARQRDAEASHKEGHHHHHH", "soluble on expression in E. coli": "soluble"},
      {"sequence": "MEGTMTCIYESVITGVGSEVQYFIEENMVVIFNDTVPDDLKSIGVIHKHTELQADVAAGDVLEVNGACFRILFVGDKVNDTLREIGHCTIAFNGETNADLPGTLCVEKKPLPDFVTGATIKFIKE", "soluble on expression in E. coli": "not soluble"},
      {"sequence": "MKETNAGSVYSPELIEFATVGVEFCALVEQAAAHRTTDFIDKASKVLPLLYLKTALLPPYEYSEEVDFVEEYITEESYEQVRSAVESLLGSYDSFLDARHSDMQYSDTPVGASIGECLADVYQQVGNLLGVVRQSNDRAIPQAIGRCLTYFGEYWGNRLLAAAGALHELRYSEVYRTWEEEERAED", "soluble on expression in E. coli": "soluble"},
      {"sequence": "MSLAYKGYLIDLDGTIYKGKSRIPAGERFIERLQEKGIPYMLVTNNTTRTPESVQEMLRGFNVETPLETIYTATMATVDYMNDMNRGKTAYVIGEEGLKKAIADAGYVEDTKNPAYVVVGLDWNVTYDKLATATLAIQNGALFIGTNPDLNIPTERGLLPGAGSLNALLEAATRIKPVFIGKPNAIIMNKALEILNIPRNQAVMVGDNYLTDIMAGINNDIDTLLVTTGFTTVEEVPDLPIQPSYVLASLDEWTFNEGHHHHHH", "soluble on expression in E. coli": "soluble"},
      {"sequence": "MRGLDYRWIEALDSVVSKGSFERAAEQLFISQSAVSQRIKQLEKYLAQPVLIREQPPRPTLVGKKLLGLYRRVCLIEQELVPELTNQEHVRPVSMSIATNADSLATWLLPALDKVMKSRQVELNLVIYGESRTLDKLKNGEVVGAISLEPQPITGCSAEYLGQMEYLCVASPEFYQKYFAKGVTPRSLIKAPAVSYDQYDELHNKFLWDYFAVPRDKVINHTVGSSEAFVRLALSGAAYCLIPRLQIISELESGALINMTPDFMLSYPIFWHHWQLETGVLLEISEAITAYAKSVLPQ", "soluble on expression in E. coli": "not soluble"},
      {"sequence": "MGSDKIHHHHHHMQGVEPRERPYPQPNIQISYKKMEECPICLADDQEGEQFGCLNVCGHKFHLNCIREWHKYSINLKCPICRVESTHLEVGEGQHALSINLKMGFMIKNAIDYVGAETTNERNEDDTGEQDQEIEFLSERLRGTLVMDTIKIIQCSICGDTDVSRLSLYCQDCEAIYHETCLRGLACEVGDRNTWQECTDCRSNALLELRMGAISSQLASYDSRNSMIFAGELRDKHSVKTQQMYEQIRNAKHKIQMHVRRALDRYPLPLLRFKDAYKHVNKQVSRKLYRLSDNKYLPDQYDYDSLARTGVHTELLIYCHDE", "soluble on expression in E. coli": "not soluble"},
      {"sequence": "MQTSIDPVFAGWDGSVAQARQLQQQLAQRVALRDEVSAAPALLAGFDVGFEDDGQTTRAAAVLLDAQTLLPLETHVARVPTSMPYVPGLLSFRELPALLRALALLARTPDLVFIDGQGIAHPRRFGIAAHFGVVTGLPSIGVAKQRLAGTFIEPGGERGDHSPILLAGAQIGWALRSKPRCNPLIVSPGHRVSMQGALDWTLRTLRAYRLPEPTRLADRLASRRGEIELQTQPTLLLEHHHHHH", "soluble on expression in E. coli": "not soluble"},
      {"sequence": "MGSDKIHHHHHHMQIYASLLLILKLERKLCIFSGKVMELYEMYYFAFNKSSEPMLFADPNTGRIFDVNQAFLALLGYAKDEVMVKTTFDLGLLPEEDSQPRQPLWVKTKNGSLKSGMVSATDLVHKEKMMRLMVFQEQSENGNFTLEEMLTQTISLISKISEFRDPYTSGHQKRTQKLACAIASEMKLSGEAIHHVSMAAAIHDVGKIYISSDILNKPGKLTQLEYQMLQTHVEVGYEIIKDFQLPWQIPEIISQHHERLDGSGYPKGLTASQIFLESKILAVADVVDAMNSHRPYRPALGIEAALEEICNYKGEKYDSEVVEHCVRLFKEKQAMPNRFKI", "soluble on expression in E. coli": "not soluble"},
      {"sequence": "TIKRMECFDISHTMGSQTVASCVVFDENGPLKSDYRRFNIEGITGGDDYAGMEQALVKRYDKPLPIEKIPDIIFIDGGKGQLNRALQVFEKLTVAWDKHKPLLIGVAKGAERKAGLETLIIGRLKKEIHLPIDSPALHLIQHIRDESHHHAISGHRKKRQKA", "soluble on expression in E. coli": "not soluble"},
      {"sequence": "MAHHHHHHMEDAQSGRASFSLRVPLCELLPKDSSLTDSPQNAVNLLYTICFSNTELKLRMKVTNTSEEQSAPFQFAFHTYFAVSDVSRTVVSGVNRSPFVDNCKARGNPDAPPSPPEQLWIIRGEHDRVYPDQACAIVLQDMGAKTTLQISSPNLSDVCLWNPGESKCAAMKDMPPDGYKHFVCVEHGKMLKKVVVPPCSSWTGTQEIAIIAESPHESSI", "soluble on expression in E. coli": "not soluble"}
    ]}
  ]
}
